The NTF2 design screens of Basanta et al. (2020)

Test: protease stability score; higher = more stable; yeast display proteolysis, trypsin and chymotrypsin;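 further: relative to predicted unfolded state with 0 unfolded-like and 1 meaning tenfold more protease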

Row | Sequence | protease stability score
1 | DEDTHMVERALTLLYKTLHTGDEDLYRELIDPHVRVEINGQELIGRELLIEWFREMVERFPNIRIEIHDIRLFDGRLESDSRLHYGDKSREVHLIARKVNGQWRLESLKVE | 1.41
2 | DEDTHNASEALEYLWRVIMTGDEEQVERMADPNVRVVFNGKHLHGREWFLRVLLHIRFDRVRIEHIHTQGEKVRTDSKSDIEFDGRRIEVDIEIYIHKINGRWIVKMFIFR | 2.89
3 | DEDTHRLELVLDLWSFAMLTGDEETLTKLIDPNMRIEIGDKIAHGREKLHEMLREIRIQIHHVHLDDYRVYGNKITLHVHIRMTLHVDGRTIHTELKTEIIIHKIDGKWVFHKVRFE | 1.28
4 | DEDTHVMEHALREWSHIFHTGDEDRLLELMDPRTRATVNGVDLHGMEEITRLETEIIRSHGMKFRTFLLEDFKTIDGKIHVHSRLNVDINGKERELRVRIIAKKVNGRWVVTKVEVG | 0.952
5 | DEDTHWIRDALRRYEEMLRTGDEDLFRRLFDPHVRVEINGQENHGMESILKLYRDLVEHLGIKHVQEVELEDVNMIDGVIILHIRVRVRFDGKHETIRMNVVAYKVNGQWRLHELKEG | 1.47
6 | DEDTHYARHIMELIIRNFITGDEDDLLRLMDPNTRLHINGVDNHGREEIKRDLERWWHRYPNITVIIRVEHMTAIDGKAHSEMRVQIHYNGVTYSRETRVILIVINGRLHSVEFRID | 1.11
7 | DEDTKASELAIEILIKILLTGDEDSLNHLFDPNVRLEVGDKQMHGMESMVKFQRHWRVNHTIVKRMEIINIGDKMHIHLVGHINGDFNGKTSEHESHVHILNEKVNGRWLIRSMEIEIR | 1.62
8 | DEDTKEADDFTKIWAKSVETGDEDMLKHLADPHVRVEIGDKVFIGRHFWLKVLRHIRVESVHVEDYKVQGEKVEYHVRFEVDINGQKVESTRRMIVRKVNGRWILETVILE | 1.49
9 | DEDTKHDEEMFRLVLHLLRTGDEEKLTELADPNVRLEVDIDGRRDTYHGREEMLKWLQELLKRYKNMTIKVHRVSVVNGKAHMDGITKVGDKEFKELRIWVVIDGKIRTIKIEIL | 2.27
10 | DEDTKIIKEMLDEMVHATLTGNEDLLRELVDPEVRIRVGDKEKHGWEFLFHMLKHLRIDRSEITIHSIRVVNGRVEVDGELRIIFTIGDKHIEFSTRVHIILEKVDGRWRVQALLFH | 0.688
11 | DEDTKIVEEAIRYHKHNIETGNEEYMDKLADPNTRLEINGVEFHGRESYNHWMRRVLEHWRFHDIKIDSVDVFNGRVRFYGRRIVKIGEFTMIFEITYISTKFNGRWILEEEENR | 0.564
12 | DEDTKKAEEVLRMFDEAFRTGDEDILRELMDPNVRYVINGREFHGREEVTNAMRELHHRFDHFKSTHIKDHKIQGDKMDVHSTLTYHVNGKDIHVDSREVWVKVNGKWHLRKIIIH | 2.24
13 | DEDTKLAKEAWRHLMENLHTGNEEIILHLVDPNAKFRYGEFEHHGRESLKWFRKRYDHIEVTHVEFHHVQVQGDKLIYHGTLEMSFEQGNKHEHWEYNVLLISRKINGRWIVKSIEVN | 0.953
14 | DEDTKLAQKMSKLLNHAIHTGDEKILRQLLDPHVRVHIGDKEHHGWKEYEKIMQEWRFEHVETEHVSLVNGRLHIDSHIVGNIDGRRTEVETHIIIKKFDGRWIDTEFHMK | 0.583
15 | DEDTKLMEEVIRLHMELLKTGNWDELLHMLDPNAKFEAEGRDKHGWHNFLREYKHFYEELGFKHSRVHHVRVQGDKLEMDLRINVGDKEFETNLEVLKVNGRWLIKFVRID | 1.58
16 | DEDTKLSKDAIRTFLESMVTGDEHILHRLADPNVKYSQGDKEYHGWEYAREFWSRVKNIRFHLKHYEVYGNKVHIEGELHVDGRHFEVHIVIIKFDGRWKIESHEIK | 1.19
17 | DEDTKLVEEFLRDWLRALLTGDEEHLHKLLDPNTRVEINGQEFHGREMEVELMRHWRLDHIDIREIRITIIGNKVENHVRGRVDGEFDGRKINRETKLVNYVVKVNGRWLFHSMELRTH | 1.35
18 | DEDTKMSEEALRILVEIWRTGDEDRFLELADPHTRILINGRELHGMEFFVTWLRKVKNLKIERIQLDHVRFIDGRAELETTIRLRYGDKHDDLTFKFISDKFDGRWVLSEIIII | 2.15

Row | Sequence | protease stability score
19 | DEDTKRAEHIMRMFIHSMLTGDEKTTHELLDPEARVNINGVDLHGRETLLEHHHRWLHELRIEDMHTEHYEVQGDYVHLHTREVVVVDGRRIELTTTFLLLKVDGRWVWTHIHVK | 0.997
20 | DEDTKRVEELMELWIEIWRTGDFKMLHHLLDPNVLLHVDIGDKHINVHGREEFTRFLEEELRKVKNAREEINDEKLVGDKVILDYSIHVNGRTLRVHLEIILIDGRMKVSRVKVK | 2.14
21 | DEDTKTAWRMLHLSHKAIETGDEHLIKHLFDPHVRIHIDGVDLHGREELLTHLRHWRMVVEDEVSKDSKSYGDKITLDGHVDLTFEYNGRRVRVIFDTRIIIVKFNGRWLIKTIHFE | 0.512
22 | DEDTKVVEEILRLLVEIWKTGDEHTWKRLLDPHARMDVDGRELHGREEIARHVKEETEKLGANVHNHVEIHHMEIIGNKVIIDGTVDGIVNGRITRIRVEVFWLVFDGVIKEEEHRVL | 0.955
23 | DEDTLIAKEIAELIIHALLTGDEDILKRLMDPTVKNDVNGVEFHGREILYKLLLEMRIHRVEYTHIDMRIYNGRAEVRIHGKIHVTINGVHDDKERRIDIIIVKINGKWTIESFVVHRL | 2.53
24 | DEDTNIEKMASQRIFHDIMTGDFQSLWEMFDPNARLIQGDWHSHGRENIIIYYMELVEKLGVTNVRFRLEDEDSQGDKVIIHSSLNINGRHFKLDIHAVKINGRWFIREVDVRLH | 1.4
25 | DEDTNLLREFVRLLSEALKTGDEDTLRTLFDPHVRFIIGDKDLVGREAFHFFLERFDVIRSVELHNYDHYGDKVTLDTRQVIHVNGQDIRIHSHIVVTKVNGRWRLESVKFK | 1.25
26 | DEDTQRREEWHHQFIMSMRTGDERLLLELVDPNYRSDINGVELHGWEFAEKLMRDAGVKHYELKRVHHIGDKMIVDGVTTFNGKERRVIFIARKIDGRWLITSSHFE | 1.31
27 | DEDTQTLEKIWRDFVRALRTGDEDHLSRLLDPNTRIDINGKESHGRERAEEVLREMFERIDHFHRVEIHDRREVNGRVNLDTRRDVEVNGVRDMYTTHLIILKVDGKWSMKTIELK | 1.33
28 | DEDTRDAEHISRMMLHAFITGDERLIEKNADPDTRIDVNGVDYHGREEMVKLFKRWLDELGVNHMEIKETTTHVYDGRVEVVLHLHVDYNGRRHHLIIIIINDKFDGQWRIRSLEFEER | 1.37
29 | DEDTRDAEQFLKELLHNQITGDEESEDKLADPNVRIIINGREIHGRETWIKWRRQARITFEDQRVHSIHMIGDKLVLKIEIDGNLSFNGREIRDTVEIEIVVTKVNGRWVLDQVHFK | 1.63
30 | DEDTRDTEIAFELLLRHMYTGDWHLVERMLDPNVRVHQGDFHTVGWEDFVRISLEARLHDMRIHQVRSQGDFVEIDGHVDFEINGKRIRVRTILIVLKVNGRWFLKSIEIR | 1.23
31 | DEDTRDVDRFLKRLEETLLTGDWNSIRELFDPNVKVIFNGRHRHGWQNMVDILREIRVTDVRMELDDVEQYGDKITIRGRLRFKGEINGKEQDTSLTIEIILIKVNGKWSVNSIEFR | 2.46
32 | DEDTREAEKMYRLFRHLFLTGDWEHTYQLADPHVRTDFNGVEWHGRELALEILLHFLEILGVDHITLKRQEIHIVDGRLLVILHLELRAENHSEDLLIIVIMNKFDGRWHVESEEIKVR | 0.539
33 | DEDTREKRRILEESLHIFETGDWEAMLKNADPNVRSEIHIGDKRLEFHGMRNWLEEWLTRLEKIKNMTFRIHDIRRQGDKVHIDGDLHVNGKHSKVRIELIIVDGVIHTLFFFDH | 0.953
34 | DEDTRESEKMLSEILESHLTGNWRMIRHLADPHVRVEIGDKTYHGRDNLKRIFLDLLEKLGVDHMEFRDIHIRVQGDKLHIHIKVDLIVGDKVDIMQSHIHVEKINGRWYVHLVHWRLT | 0.817
35 | DEDTRIMEELLELTMEHVKTGDESSFRKLADPNVRMEYNGVEIHGREEASELFLEEMERIKNLTLRIKRLHIQGDKVIIYEEYEYGEKSWTVTYEAYKINGRWLMESIRFG | 1.13
36 | DEDTRKIYHWAELIVELLMTGDEDILHELADPDVKVHINGVTLHGREEADKFLEEWLRRFKNIQIRIRRITVINGRVDVESEVNVGDKRKDSRIHATVVNGRWKIISMDDH | 1.42
